± gives the uncertainty stated by the source.
B1: Zinc finger homeobox protein 4, residues 2562 to 2617; numbered along this chain, Q86UP3 (parent)
chain: RLRTTITPEQLEILYEKYLLDSNPTRKMLDHIAREVGLKKRVVQVWFQNTRARERK

Variants of: B1
Experiment: abundance fitness (aPCA) (normalised: wild type 0, dead -1); higher = more abundant; growth selection in yeast, the domain comes from the species named
Details: Homo sapiens

Variant | abundance fitness
RLRTDITPEQLEILYEKYLLDSNPTRKMLDHIAREVGLKKRVVQVWFQNTRARERK [T5D] | 0.068 ± 0.23
RLRTEITPEQLEILYEKYLLDSNPTRKMLDHIAREVGLKKRVVQVWFQNTRARERK [T5E] | 0.141 ± 0.15
RLRTFITPEQLEILYEKYLLDSNPTRKMLDHIAREVGLKKRVVQVWFQNTRARERK [T5F] | -0.312 ± 0.13
RLRTGITPEQLEILYEKYLLDSNPTRKMLDHIAREVGLKKRVVQVWFQNTRARERK [T5G] | -0.132 ± 0.097
RLRTIITPEQLEILYEKYLLDSNPTRKMLDHIAREVGLKKRVVQVWFQNTRARERK [T5I] | 0.057 ± 0.17
RLRTKITPEQLEILYEKYLLDSNPTRKMLDHIAREVGLKKRVVQVWFQNTRARERK [T5K] | -0.332 ± 0.31
RLRTLITPEQLEILYEKYLLDSNPTRKMLDHIAREVGLKKRVVQVWFQNTRARERK [T5L] | -0.298 ± 0.15
RLRTMITPEQLEILYEKYLLDSNPTRKMLDHIAREVGLKKRVVQVWFQNTRARERK [T5M] | -0.241 ± 0.29
RLRTNITPEQLEILYEKYLLDSNPTRKMLDHIAREVGLKKRVVQVWFQNTRARERK [T5N] | 0.265 ± 0.19
RLRTPITPEQLEILYEKYLLDSNPTRKMLDHIAREVGLKKRVVQVWFQNTRARERK [T5P] | -0.032 ± 0.25
RLRTQITPEQLEILYEKYLLDSNPTRKMLDHIAREVGLKKRVVQVWFQNTRARERK [T5Q] | 0.085 ± 0.13
RLRTRITPEQLEILYEKYLLDSNPTRKMLDHIAREVGLKKRVVQVWFQNTRARERK [T5R] | -0.34 ± 0.076
RLRTSITPEQLEILYEKYLLDSNPTRKMLDHIAREVGLKKRVVQVWFQNTRARERK [T5S] | -0.068 ± 0.053
RLRTVITPEQLEILYEKYLLDSNPTRKMLDHIAREVGLKKRVVQVWFQNTRARERK [T5V] | 0.025 ± 0.084
RLRTWITPEQLEILYEKYLLDSNPTRKMLDHIAREVGLKKRVVQVWFQNTRARERK [T5W] | -0.397 ± 0.16
RLRTYITPEQLEILYEKYLLDSNPTRKMLDHIAREVGLKKRVVQVWFQNTRARERK [T5Y] | -0.252 ± 0.23
RLRTTATPEQLEILYEKYLLDSNPTRKMLDHIAREVGLKKRVVQVWFQNTRARERK [I6A] | -0.266 ± 0.099
RLRTTCTPEQLEILYEKYLLDSNPTRKMLDHIAREVGLKKRVVQVWFQNTRARERK [I6C] | -0.565 ± 0.1
RLRTTDTPEQLEILYEKYLLDSNPTRKMLDHIAREVGLKKRVVQVWFQNTRARERK [I6D] | -0.759 ± 0.13
RLRTTETPEQLEILYEKYLLDSNPTRKMLDHIAREVGLKKRVVQVWFQNTRARERK [I6E] | -0.477 ± 0.14
RLRTTGTPEQLEILYEKYLLDSNPTRKMLDHIAREVGLKKRVVQVWFQNTRARERK [I6G] | -0.264 ± 0.049
RLRTTHTPEQLEILYEKYLLDSNPTRKMLDHIAREVGLKKRVVQVWFQNTRARERK [I6H] | -0.202 ± 0.29
RLRTTKTPEQLEILYEKYLLDSNPTRKMLDHIAREVGLKKRVVQVWFQNTRARERK [I6K] | -0.852 ± 0.37
RLRTTLTPEQLEILYEKYLLDSNPTRKMLDHIAREVGLKKRVVQVWFQNTRARERK [I6L] | -0.196 ± 0.07

Variant | abundance fitness
RLRTTMTPEQLEILYEKYLLDSNPTRKMLDHIAREVGLKKRVVQVWFQNTRARERK [I6M] | 0.144 ± 0.14
RLRTTNTPEQLEILYEKYLLDSNPTRKMLDHIAREVGLKKRVVQVWFQNTRARERK [I6N] | -0.708 ± 0.32
RLRTTPTPEQLEILYEKYLLDSNPTRKMLDHIAREVGLKKRVVQVWFQNTRARERK [I6P] | -0.056 ± 0.074
RLRTTQTPEQLEILYEKYLLDSNPTRKMLDHIAREVGLKKRVVQVWFQNTRARERK [I6Q] | -0.761 ± 0.14
RLRTTRTPEQLEILYEKYLLDSNPTRKMLDHIAREVGLKKRVVQVWFQNTRARERK [I6R] | -0.983 ± 0.076
RLRTTSTPEQLEILYEKYLLDSNPTRKMLDHIAREVGLKKRVVQVWFQNTRARERK [I6S] | -0.652 ± 0.06
RLRTTTTPEQLEILYEKYLLDSNPTRKMLDHIAREVGLKKRVVQVWFQNTRARERK [I6T] | -0.584 ± 0.19
RLRTTVTPEQLEILYEKYLLDSNPTRKMLDHIAREVGLKKRVVQVWFQNTRARERK [I6V] | -0.248 ± 0.081
RLRTTWTPEQLEILYEKYLLDSNPTRKMLDHIAREVGLKKRVVQVWFQNTRARERK [I6W] | -0.465 ± 0.072
RLRTTYTPEQLEILYEKYLLDSNPTRKMLDHIAREVGLKKRVVQVWFQNTRARERK [I6Y] | 0.06 ± 0.089
RLRTTIAPEQLEILYEKYLLDSNPTRKMLDHIAREVGLKKRVVQVWFQNTRARERK [T7A] | 0.208 ± 0.12
RLRTTICPEQLEILYEKYLLDSNPTRKMLDHIAREVGLKKRVVQVWFQNTRARERK [T7C] | -0.258 ± 0.3
RLRTTIEPEQLEILYEKYLLDSNPTRKMLDHIAREVGLKKRVVQVWFQNTRARERK [T7E] | 0.259 ± 0.14
RLRTTIGPEQLEILYEKYLLDSNPTRKMLDHIAREVGLKKRVVQVWFQNTRARERK [T7G] | -0.155 ± 0.066
RLRTTIIPEQLEILYEKYLLDSNPTRKMLDHIAREVGLKKRVVQVWFQNTRARERK [T7I] | -0.756 ± 0.43
RLRTTIKPEQLEILYEKYLLDSNPTRKMLDHIAREVGLKKRVVQVWFQNTRARERK [T7K] | -0.55 ± 0.26
RLRTTILPEQLEILYEKYLLDSNPTRKMLDHIAREVGLKKRVVQVWFQNTRARERK [T7L] | -0.206 ± 0.12
RLRTTIMPEQLEILYEKYLLDSNPTRKMLDHIAREVGLKKRVVQVWFQNTRARERK [T7M] | -0.321 ± 0.14
RLRTTINPEQLEILYEKYLLDSNPTRKMLDHIAREVGLKKRVVQVWFQNTRARERK [T7N] | -0.238 ± 0.42
RLRTTIPPEQLEILYEKYLLDSNPTRKMLDHIAREVGLKKRVVQVWFQNTRARERK [T7P] | -0.165 ± 0.2
RLRTTIQPEQLEILYEKYLLDSNPTRKMLDHIAREVGLKKRVVQVWFQNTRARERK [T7Q] | -0.295 ± 0.082
RLRTTIRPEQLEILYEKYLLDSNPTRKMLDHIAREVGLKKRVVQVWFQNTRARERK [T7R] | -0.449 ± 0.07
RLRTTISPEQLEILYEKYLLDSNPTRKMLDHIAREVGLKKRVVQVWFQNTRARERK [T7S] | -0.111 ± 0.13
